Here are results for 20 sequences from the DeepSol protein solubility set.

This data set in a line: soluble on expression in E. coli; label from the status in PepcDB or PDB records.
Turning to “MSAVMATYLLHDETDIRKKAEGIALGLTIGTWTDLPALEQEQLRKHKGEVVAIEELGESERVNAYFGKRLKRAIVKIAYPTVNFSADLPALLVTTFGKLSLDGEVRLLDLEFPDEWKRQFPGPRFGIDGIRDRVGVHNRPLLMSIFKGMIGRDLAYLTSELKKQALGGVDLVKDDEILFDSELLPFEKRITEGKAALQEVYEQTGKRTLYAVNLTGKTFALKDKAKRAAELGADVLLFNVFAYGLDVLQALREDEEIAVPIMAHPAFSGAVTPSEFYGVAPSLWLGKLLRLAGADFVLFPSPYGSVALEREQALGIARALTDDQEPFARAFPVPSAGIHPGLVPLIIRDFGLDTIVNAGGGIHGHPDGAIGGGRAFRAAIDAVLAGRPLRAAAAENEALQKAIDRWGVVEVEA”, the “soluble on expression in E. coli” value is given as “soluble”.

Turning to “MSLQEPFSQLESEIQVLKSHIANISGLSVPKNVLKNADGSTLKSLSEASLKVIEKTIRITAHAVNLKLRIETDIANLKNQIKLLTETKEQQDALSKALEASSTLVKLEDRHERLTERIQALEKKIDEAIRQLSYKESMPLSKEEKLWIREVNGINALLNNAGEDSLALKIEDLKVQVTALSQNEHSANEHLTDAEIQKRQNSIILAKLSLWLQNDLEKLDEVKQSVTDCIRRLREGHHHHHH”, the “soluble on expression in E. coli” value is “soluble”.

In the case of “MSAKNRLDVFDKKTRDVIESDLVKMRGYKRNIGSRNQEMTMKNVEKKVEQMGAKNEEMFSMISKIMQKPNSTGHLQWDSQTLADLMNKSDSFDDDQESLNMPRSSESSAMSVRNRTLERQSEPVRKSPKAAPKVKNEAGITASYVTSEMSDRRSIDEVMVRAAKNAKREEKFDLGFFKFISLAGHILESSCKHSEDQEDPSCLKCKYDRELKLEERPEMVFARNSLTIQFGRLGSIEFNALDALKMVCADRLPDVKVGASTVWQSARQDRIQQISEHQKPFDWTYTTHYKGTVTGCQVTPTTERIDMERLKRRDEILFSSSITLFEDELADHGIAQLLARVRVMRGYFFVLLRFYMRVDNVLLRVCDTRIVGNEFDGHVIREWQLREAKYGNLGHVDPEELLDVDRAWMHLPVVEEHFDRVSVDRERLF”, the “soluble on expression in E. coli” value was “not soluble”.

In the case of “MGSDKIHHHHHHMKSVGQALENQGRVPRNTNDELIQMILADAQVAEFIKTHQLSQREINISMSKFNQFLIERQKFKNKDSQYIAKGYEPILVMNEGYADVSYLETRELIEAQKKQAISDRINLVNLPKSYRNIRMTDFDINNESRMKAMSQLLDFVETYPSYNHKGLYLYGDMGVGKSYLMAAMARELSERKGVSTTLLHFPSFAIDVKNAISSGTVKDEIDAVKSVPILILDDIGAEQATSWVRDEILQVILQHRMLEELPTFFTSNYSFNDLERKWANIKGSDETWQAKRVMERVRYLAIEFHLEGPNRR”, the “soluble on expression in E. coli” value is recorded as “not soluble”.

For “MKIHPTAIIDPKAELHESVEVGPYSIIEGNVSIQEGTIIEGHVKICAGSEIGKFNRFHQGAVIGVMPQDLGFNQQLLTKTVIGDHNIFREYSNIHKGTKEDSPTVIGNKNYFMGNSHVGHDCILGNNNILTHGAVLAGHVTLGNFAFISGLVAVHQFCFVGDYSMVAGLAKVVQDVPPYSTVDGNPSTVVGLNSVGMKRAGFSPEVRNAIKHAYKVIYHSGISTRKALDELEASGNLIEQVKYIIKFFRDSDRGVTNHR”, the “soluble on expression in E. coli” value is listed as “soluble”.

For the sequence “SQPNSSIIKYPNKVRNLPGIAASLRTVGYSTHHLYGGDADFTNVRSYLYGTGYDEVTDVSSFPFKTRLSKWGTPDHISFPRLLDDCRRLEKEKKPYFYSFLTLSSHEPFDVPSQHHPDPYLNSVFYTDSCFGDYIRGMQQSPQWKNTLIIAVSDHGYPYPADQAMPDQPGRYGIVMLWAGGAILRPIRFEEVVSQSDLPATLLAQLGLTHDEFVFSKDVFRRNSPHFAYFSFPGLVGLATSEGTTIYDFAGDKIVYGHEAPLADQRAIAAKVMLQSVMKDMLSR”, the “soluble on expression in E. coli” value is on record as “not soluble”.

Consider “MSETFFHLLGPRTQPNDDSFSMNPLPITCQVNDEPSMAALEQCAHSPQVIALLNELQHQLSQRQPPLGEVLAVDLLNLNADDRHFINTLLGEGEVSVRIQQADDSESEIQEAIFCGLWRVRRRRGEKLLEDKLEAGCAPLALWQAATQNLLPTDSLLPPPIDGLMNGLPLAHELLAHVRNPDAQPHSINLTQLPISEADRLFLSRLCGPGNIQIRTIGYGESYINATGLRHVWHLRCTDTLKGPLLESYEICPIPEVVLAAPEDLVDSAQRLSEVCQWLAEAAPT”, for which the “soluble on expression in E. coli” value was “not soluble”.

Take “MQMLRNVHPVTEIQVSANMAEVRARVDFKVGAKSNIDAEILSFHGLQSDKEHVAVIFKSADTTQEAPLVRMHSECLTGDVFHSSRCDCGEQLEETITRMGQSGGIILYLRQEGRGIGLYNKIDAYRLQSQGMNTYEANNHLGFGDDLRDFTEAAQMLQALGVKKIRLVTNNPKKIRELQEHGIEIVEVVHTSAHIKDGNENYLKAKVSHGKHQLKL”: the “soluble on expression in E. coli” value is given as “not soluble”.

Turning to “MINRVPTNIITGFLGVGKTTAILHLLATKPAHEKWAVLVNEFGEIGIDGAIMSEQGAMIKEVPGGCLCCTAGVPMSVGINALLRQKPDRLIIEPTGLGHPKQVVATLISEQYQPYVDLKATIALMDPRHLSMDKYRSNQNFNDQLASADIVLGNKVDQCSSSDIDAFNDWVTDQTPAKTFSQLIKQGQFPIELLDMPRLVGHASTHIDSHHHHHAADEPQFQLAPQQPFLRKENRGQGYFSCGWLFGAEYQFNFDLLFQLLNDLTAERVKGVLNTDRGCYAFNVANGVVSVTEMSLDGFESRLEVIDSQLMPWSELESILLKIAGIPQALEHHHHHH”, the “soluble on expression in E. coli” value is listed as “not soluble”.

Consider “MAHHHHHHMEQLNDDDERENLYFVDHGRPKYKHTDLLAMLRDAQSAIIRFSEENRDIIADAVNFASTSERANTLRKLEEAYLGIVKVQAPMVRCSRPAFRKLCRLWGTDVSYTHMIMADSFTCSDAARHADFSMYAGEERLVAQIASCSGPVAAEAATLLAPYCDAIDLNCGCPQRWIIKEGLGSALLQKPEVVADMVRCIHNGLSGGVDLPCVVKMRVSNDVGRSVDFARQCEAAGCGWITVHGRTPSCSAHAPVRLDAIRTIRECVSVPVVANGGVNNPQTALKTSLTTGAGAVMSATGLLANPACFYVPREGELLLFAPQRRGVDVALEASMGPCRGADEGASTAGSENSAWLKGLPGCPVEVISDFIRLSCVTDLASKATSMHLLKMGGNYLSPTERVFLAQMHSSFSVVSALQQLGLYTQDGKFRVVESVT”, for which the “soluble on expression in E. coli” value is “soluble”.

Regarding “VSIDSSRRIIQAIEQNEFHLYCQKIIPAGSNQESSSYYEVLIRMAEEESNLIPPGAFLPFVEKYNLMPRLDSWVVEQVIHYLADQRADPRISFCINLARSTLIDPVFYDRVWKLLNAAGIEPQRICFEIETADVAANLLSAVQFVKKVQQSGCLVSLCSFNHDRGSFDLLKHIQADFLKIDGSLICNILRDAEDLKKVENIGKFARALKIRTIGELVETRNILEKLAKIGIDYAQGFIVGRPLPIEKIEYRADSMDDL”, the “soluble on expression in E. coli” value is recorded as “not soluble”.

Consider “NTRGMALFADGGLIATKPYSASGSYINKMSDYCASCAYQVKLKSGEKACPLNSLYWRFMLKHRDRLANNPRIGMLYKTWDKMTSDSQQAILSTADAYLSQIESL”, for which the “soluble on expression in E. coli” value is listed as “not soluble”.

As for “GSLVPELNEKDDDQVQKALASRENTQLMNRDNIEITVRDFKTLAPRRWLNDTIIEFFMKYIEKSTPNTVAFNSFFYTNLSERGYQGVRRWMKRKKTQIDKLDKIFTPINLNQSHWALGIIDLKKKTIGYVDSLSNGPNAMSFAILTDLQKYVMEESKHTIGEDFDLIHLDCPQQPNGYDCGIYVCMNTLYGSADAPLDFDYKDAIRMRRFIAHLILTDALK”, the “soluble on expression in E. coli” value was “soluble”.

As for “MDNKNFQSKTGFNLENTYLTLPNIFFSEQNPKGSKNPKLIKFNTSLAEELGLNEEVLNSDFGLNIFAGNETFPGIVPIAQAYAGHQFGHFTMLGDGRALLLGEHVTKDCKRYDVQLKGSGRTIYSRGGDGKAALAPMLREYIISEGMHGLGIPTTRSLAVVSTGEEVLRERFEQGAILTRIASSHIRVGTFAYAAQWGTLEDLKSLADYTIKRHFPNIADNENKYILFLEEVINRQAELIVKWQSVGFIHGVMNTDNMVISGETIDYGPCAFMDTYDTNTVFSSIDYAGRYAYGNQPNMALWNLARFSEALLPLLNPNLDEAVNIAKKSISNFSKLYKKYWFNKMRTKLGLFTEKENDELLIEGLLSTMQKYEADFTNTFVSLTLNKFEDEKVFSSDEFKTWYALWQNRLKEENRPQEEVRNLMMNNNPYIIPRNHLVEEALKNAEKGDFTFMDNLLEALKNPYSYSKDLEKYTKLPEKSDTPYVTYCGTLEHHHHHH”, the “soluble on expression in E. coli” value was “not soluble”.

As to “LSSPADSYNEGVKLQPQEISPPPTANLDRSNDKVYENVTGLVKAVIEMSSKIQPAPPEEYVPMVKEVGLALRTLLATVDETIPLLPASTHREIEMAQKLLNSDLGELINKMKLAQQYVMTSLQQEYKKQMLTAAHALAVDAKNLLDVIDQARLKMLGQTRPH”, the “soluble on expression in E. coli” value is listed as “soluble”.

With “MGSSHHHHHHSSGRENLYFQGMTKSKNNPGRGNTIRESNTMKVMEEIREKIRKAIKEGVSLREIEEIILQEAMMEEREAYLEVEDDHKNGTYFRYLGTGDGVLRLRVPRTRKGGFRPKILPEKYERTSPDYEDFLQQLVLSGMTPSQVKAVLAAKGIPYSEIVMNRVAERISNKLKEYKSRELPHDLLALYIDVKIVKVRISESIMERAIYIAIGVDLEGNKFVLDYEVRDREDLDGWKSFLSGLVSRGVSRVDVIVSDDFSGLDRVVSTLFPSSQHQLCITHMVRNLMRVLPDKEKEELMIRVRDLKSSRNVEEGRKAILSLSQLVQPFSPARAKRLLDAADKYCSFLNFPREIRHYLYTNNTSESFNLTLARFEEELGGYFPSLRSLEVYLYVSIHESNSRWKFRPMSVIRHYSYHLKQLHASRFQVSLDEDF”, the “soluble on expression in E. coli” value is recorded as “soluble”.

Turning to “MDASLTGAVAELGTSKAAARIRAAAIEVFAAKGYGATTTREIAASLDMSPGAVYPHYKTKESLLYAISLEGHHSVLAAITAADFPDIAAPDRLMSTVTAYVTWHADNRASARVGQYELRSLSPEHFAIIADIRRSTTKVFTRIIEAGATAGDFHPFDIEAAALAITSLGIDVSRWFPSHTYSDPRIIAARYVELALRMVGCADRQPLDKPS”, the “soluble on expression in E. coli” value was “soluble”.

For the sequence “GAMGSMKPYLFDLKLKDTEKLDWKKGLSSYLKKSYGSSQWRTFYDEKATSELDHLRNNANGELAPSSLSEQNLKYYSFLEHLYFRLGSKGSRLKMDFTWYDAEYSSAQKGLKYTQHTLAFEKSCTLFNIAVIFTQIARENINEDYKNSIANLTKAFSCFEYLSENFLNSPSVDLQSENTRFLANICHAEAQELFVLKLLNDQISSKQYTLISKLSRATCNLFQKCHDFMKEIDDDVAIYGEPKWKTTVTCKLHFYKSLSAYYHGLHLEEENRVGEAIAFLDFSMQQLISSLPFKTWLVEFIDFDGFKETLEKKQKELIKDNDFIYHESVPAVVQVDSIKALDAIKSPTWEKILEPYMQDVANKYDSLYRGIIPLDVYEKESIYSEEKATLLR”, the “soluble on expression in E. coli” value is recorded as “soluble”.

Regarding “MIVIEGSDKFKIAKEYIDVEYTLFSKVTFRYEKLKFKDNAELEKIKMFKYKNGYIPNKLNLSFGYGFSSYKKQIIRETVDTLRLTEIFSSENIEDIKFIKDGTKKLEISIEKVVKFKRRKKRNYVCCYCPDMYRDIKLDKESINKIYNRKIKIEREVNIFEDEDVIINKKVLKFPKSWTKNMQKYWLSENKYPIHSTVIDDDRYKCCNVQYTKNRVIILYYIYNH”, the “soluble on expression in E. coli” value was “not soluble”.

Consider “MSLLKISGKFFDEDNVDNLIVLRQSIKELADNGFRVGIVTGGGSTARRYIKLAREIGIGEAYLDLLGIWASRLNAYLVMFSLQDLAYMHVPQSLEEFIQDWSHGKVVVTGGFQPGQSTAAVAALVAEASSSKTLVVATNVDGVYEKDPRIYADVKLIPHLTTQDLRKILEGSQSVQAGTYELLDPLAIKIVERSKIRVIVMNYRKLNRIIDILKGEEVSSIIEPVEGHHHHHH”, for which the “soluble on expression in E. coli” value is reported as “not soluble”.
